Values of other authors, collected in article PMC12193198.

Molecular target: transferrin receptor (TfR) (Homo sapiens) (UniProt P02786)
Sequence (P02786 89-760): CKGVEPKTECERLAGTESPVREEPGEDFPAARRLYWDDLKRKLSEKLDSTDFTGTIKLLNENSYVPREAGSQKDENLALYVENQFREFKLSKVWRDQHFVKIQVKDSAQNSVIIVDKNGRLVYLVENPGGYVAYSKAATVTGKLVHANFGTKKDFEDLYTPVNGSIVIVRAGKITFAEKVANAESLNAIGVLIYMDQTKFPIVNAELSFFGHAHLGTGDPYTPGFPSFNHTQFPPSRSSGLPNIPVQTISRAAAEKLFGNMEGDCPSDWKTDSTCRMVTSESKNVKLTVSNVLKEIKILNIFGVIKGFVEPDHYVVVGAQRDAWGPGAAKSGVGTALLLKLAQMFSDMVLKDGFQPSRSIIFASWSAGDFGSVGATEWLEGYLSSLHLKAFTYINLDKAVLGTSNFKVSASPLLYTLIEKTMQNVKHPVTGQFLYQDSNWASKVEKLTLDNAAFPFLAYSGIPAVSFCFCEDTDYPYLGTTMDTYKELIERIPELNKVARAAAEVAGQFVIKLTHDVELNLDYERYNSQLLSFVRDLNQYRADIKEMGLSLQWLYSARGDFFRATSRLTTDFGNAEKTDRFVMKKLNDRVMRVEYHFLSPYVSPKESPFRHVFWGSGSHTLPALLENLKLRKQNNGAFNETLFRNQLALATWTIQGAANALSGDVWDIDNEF

Substance: T7 peptide
- Kd: 10 nM
